Results published in patent publication US20240279324A1.

Target: VEGF (human) (UniProt P15692)
Assay: VEGF blocking assay (luminescence)

Chain of VEGF (human) (P15692 other isoform, or with tags, fused parts or gaps): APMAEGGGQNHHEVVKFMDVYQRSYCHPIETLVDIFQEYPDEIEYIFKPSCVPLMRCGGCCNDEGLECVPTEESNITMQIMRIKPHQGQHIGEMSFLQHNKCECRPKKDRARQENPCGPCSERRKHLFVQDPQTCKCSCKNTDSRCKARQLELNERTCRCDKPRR

- IC50: 0.107 nM
Substance: Avastin
